Legend:
[1] = test system: BaF/hIL6R (Ba/F3 cells expressing human IL-6 receptor); test: ADCC (chrome release) with human PBMC as effector cells against BaF/hIL6R cells; format: cell-based
Method: Variant 6RNMSC1-2_F02 with increased effector activity (the heavy chain and light chain sequences are shown in SEQ ID NOs: 94 and 91, respectively) was used. At various concentrations of 6RNMSC1-2_F02, ADCC activity against hIL-6R-expressing cells was assayed in the presence or absence of kynurenine according to the method described in Reference Example 1.
Furthermore, there is a difference in the kynurenine concentration between normal and tumor tissues, and thus it is preferable that the ADCC activity of an antibody is exerted against antigen-expressing tumor cells only at the kynurenine concentration in tumor tissues, while at the normal-tissue kynurenine concentration, the ADCC activity is impaired or not exerted. Then, 6RNMSC1-2_F02 was assessed for ADCC activity against hIL-6R-expressing cells at various kynurenine concentrations according to the method described in Reference Example 2. […] Furthermore, in contrast to the approximately 10% ADCC activity at 4 to 6 μM which is considered to be the kynurenine concentration in normal tissues, the ADCC activity at 30 to 40 μM which is considered to be the kynurenine concentration in tumor tissues was about 25%.
Antibodies that bind antigens in a kynurenine-dependent manner were assessed for their ADCC activity against antigen-expressing cells at different antibody concentrations according to the method described below. Human peripheral blood mononuclear cells (hereinafter referred to as human PBMC) were used as effector cells to measure the ADCC activity of each test antibody as follows.
Syringes pre-filled with 200 μl of 1000 units/ml heparin solution (Novo-Heparin 5000 units for Injection; Novo Nordisk) were used to collect 50 ml of peripheral blood from healthy volunteers (male adult) affiliated with Chugai Pharmaceutical Co. Ltd. The peripheral blood was diluted two-fold with PBS(−), and divided into four equal parts, each of which was transferred into a pre-centrifuged leukocyte separation tube Leucosep (Greiner Bio-One) containing 15 ml of Ficoll-Paque PLUS. The separation tubes containing an aliquot of the peripheral blood were centrifuged at 2150 rpm for ten minutes at room temperature. Then, the resulting mononuclear cell fractions were collected from the tubes. The cells in each fraction were washed once with RPMI-1640 (nacalai tesque) supplemented with 10% FBS (hereinafter referred to as 10% FBS/RPMI), and then suspended at a cell density of 1×10^7 cells/ml in 10% FBS/RPMI. The cell suspensions were used as the human PBMC solution in subsequent experiments. […]
ADCC activity was assessed based on specific chrome release rate determined by chrome release assay. […]

[2] = target: T1, hIL-6R (Homo sapiens, UniProt P08887); test: Phage ELISA, binding to hIL-6R in the presence or absence of SC; settings: in the presence of SC
T1 sequence (P08887 20-355 limits assumed): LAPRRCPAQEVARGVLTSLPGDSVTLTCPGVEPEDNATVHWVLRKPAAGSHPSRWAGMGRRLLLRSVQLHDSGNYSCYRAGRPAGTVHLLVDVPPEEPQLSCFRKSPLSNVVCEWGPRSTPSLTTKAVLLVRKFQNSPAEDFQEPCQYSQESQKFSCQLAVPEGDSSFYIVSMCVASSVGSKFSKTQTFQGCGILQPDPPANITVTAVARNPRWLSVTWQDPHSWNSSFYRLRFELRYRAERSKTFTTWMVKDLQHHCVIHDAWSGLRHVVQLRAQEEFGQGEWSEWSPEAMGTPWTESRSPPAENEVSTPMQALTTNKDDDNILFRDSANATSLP
Method: Culture supernatants containing phages were collected according to a conventional method (Methods Mol. Biol. (2002) 178, 133-145) from single colonies of E. coli obtained as described in (14-2). Phages purified by the method described in (2-4) were subjected to ELISA by the following procedure. A StreptaWell 96 microtiter plate (Roche) was coated overnight with 100 μl of TBS containing biotin-labeled hIL-6R. After biotin-labeled hIL-6R was removed by washing each well of the plate with TBST, the wells were blocked with 250 μl of 2% skim milk/TBS for one hour or more. 2% skim milk/TBS was removed, and then the prepared, purified phages were added to each well. The plate was allowed to stand at room temperature for one hour to allow binding of antibody-displaying phages to biotin-labeled hIL-6R in each well in the presence or absence of SC. After washing with TBST or SC/TBST, an HRP-conjugated anti-M13 antibody (Amersham Pharmacia Biotech) diluted with TBS or SC/TBS was added to each well. The plate was incubated for one hour. Following wash with TBST or SC/TBST, the TMB single solution (ZYMED) was added to each well. The chromogenic reaction in the solution of each well was terminated by adding sulfuric acid. Then, the developed color was assessed by measuring absorbance at 450 nm.

B1: 6RNMSC1-2_F02: antibody that binds to hIL-6R in the presence of kynurenine; SEQ ID NOs: 86 and 87 (antibody, listed as Homo sapiens, V domains shown)
VH: QVQLVQSGAEVKKPGSSVKVSCKASGGTFSSYAISWVRQAPGQGLEWMGGIIPIFGTANYAQKFQGRVTITADESTSTAYMELSSLRSEDTAVYYCARDAPVVARPRGAFDIWGQGTMVTVSS
VL: DIVMTQTPLSSPVTLGQPASISCRSSQSLVHSDGNTYLSWLQQRPGQPPRLLIHEISNRFSGVPDRFSGSGAGTNFTLKISRVEAEDVGVYYCMQATQFPRTFGQGTKVEIK
- ADCC activity ([1]; at 4 to 6 μM kynurenine (considered the concentration in normal tissues)): approximately 10%
- ADCC activity ([1]; at 30 to 40 μM kynurenine (considered the concentration in tumor tissues)): about 25%
- ADCC activity against hIL-6R-expressing cells ([1]; in the presence of kynurenine, various antibody concentrations, variant with increased effector activity): induced by 6RNMSC1-2_F02 in an antibody concentration-dependent manner
- ADCC activity against hIL-6R-expressing cells at various kynurenine concentrations ([1]; various kynurenine concentrations): kynurenine concentration-dependent manner
- binding activity to hIL-6R in the presence of a small molecule cocktail (phage ELISA) [2]: have binding activity
